Data reported in the domain aggregation screens of Martell et al. (2025).

Assay: soluble fraction after stress (log2 fold change); higher = more stays soluble; pooled small domains, quantitative proteomics
Conditions: stress: pH 4
Summary of the method: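 Pooled custom libraries of small protein domains were stressed at pH 4 and then measured by high-throughput quantitative proteomics. The fold change in the amount of each domain that stays soluble after the acid stress serves as a measure of aggregation propensity. Fold changes are given on a log2 scale, and higher values mean more of the domain stayed soluble.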

| Sequence | soluble fraction (log2) |
| --- | --- |
| HMNELVEATITTQTGRLDKVLTTIFPQYSRSQIQQLLEQGNILVNETLQKGKYKVKAGDKISLTEPAIKE | ≥ 0.43 |
| HMPANVELLRTFTNKTGTKIKARIVAVSDNKVKLIRDDSKKFIVPIDSLSEEDQKYLKDWIANEVGEQ | 0.133 |
| HMKSLAQELVDALGDRIRDGRLKVGDKLPSEAAIEAQYGVSRTVVREAISRLQAAGLVVTRHGIGTFIVGI | ≥ 0.43 |
| HMSKKTQKDEVVDLFLKTGNEPLHYKEISKKTGIIVHNVRRITGQNVVGKTDNPVFKRVSPGVYKLID | -0.0395 |
| HMNIIHNPSKNFIESDLNDLKEGMEIEHKKFGYGLIKSIDKTQNHQKAVVNFKLVGEKTLLLSFARLRIV | -0.519 |
| HMSSTPEPPQAVLDLVNLREQARAGKDWTQSDAFRQQIAALGWTVKDTKDGPVVSLSPTTTE | 0.105 |
| HMPPNRDDEHLQALRDYYAANRRIPSLQRVASLLGFSSRSAAVKLMGRLADEGFIERTADDDAWITGKRFF | -0.371 |
| HMTDVRFIDIPVTEHHPWNGMKVRDLQLPPGTLLVFLSHPGEKNTVPHGETVLRSGDVLVLGATAYTGQ | -0.681 |
| HMFQYEKIKDYILTGLEEGTWQAGDKIPSEAELVMSLNVSRMTVNRAVRELANSGLLVRIPGAGTFVATE | -0.886 |
| HMADWTETELAALRRAYASGTTRVSYDGKSVDYGSAEDLLSRIRTLQGAASDVAADAVAAVDA | -0.153 |
| HMEQIPEEYKKIYSLITDIPININDIAKKSLLELREVSSKLTMLELDGKVVKLPGNMYIRGDL | -0.0736 |
| HMGKELTVPDVVGQNYVSAQEKLIAGGFQVEVADSVYDSRYGRGVVVDQNPHKDTRVKPGRLIYVTVNA | 0.0611 |
| HMNSVKSPMPGTILGLKVSVGDTVKVGDELLVLESMKMENMINSPIDGTVSKILISEGDSVQHGQELII | 0.102 |
| HMSVRPMVEILRVVGSPSPVWVTWARNRAAWLYETGIRPQQRLRMADGTEVLIRLVGEFAHILVVGG | 0.0642 |
| HMQASISVDEAKSIALNYAKFTADQVVYTKSELDYDDGRAEYEIEFYAGGKEYSFTIDAVSGTVLEMEI | 0.107 |
| HMGGGVSSSLAGNVFKVLLPAGSVVEQGQAVIVLEAMKMETEVNAPKSGSVSSVFVNEGDTVEVGDLLFAI | -0.162 |
| HMLDYKSALQELLQAQRRSRPRYEVISTEGPDHERVFEVAVWLDNEELGRGKGRSKREAEHQAAQAALTQL | -0.626 |
| HMSATEPVHFDPNKSPEDMTVEELQAGILAKMANNGPVSDQMKKTVNENIWHDSLVNWLKSF | -0.0828 |
| HMQAMDYEGFKKEILKMSDIDLSLYKEKQMKRRIDSLIRKNGYEHYEDYVQALKQDSGLYNEFINYLTI | -1.33 |
| HMKVSRTAVKLHHANAVEVAKKLQPLFVVGDVQIEPVKDAGIILLKGPASTLADLRESIVQMDHTA | -0.309 |
| HMDTITDSYTLEKGKLRAKVMEYELPESKKKEYSATFEYRGVYYHMIGIIEKADFEEILKNLHFP | -0.53 |
| HMKNTFGLTEREMEVLALIVDGLSNPEIAEKLFITRATAKAHVHSILQKLYVDDRTQAAVTAMREGL | -1.14 |
| HMKVQEVDYGTFLTMVDEGKVNQVDIENSKQITFNTKGDKNKVYITGQVNDPELVNRLYKAGVEFSQEIP | -0.674 |
| HMGISNEETFLLEKMSSGRRYSRKELDNLMGFEKTKTIRLLGSLINKGLVVAEGVNRARRYIR | -0.00925 |
| HMKNISSEEDREKALSLGITQEFIDNKGRYFITVPNKPSNFKEQALNIQKEISEQIDTVINKRFEF | -0.263 |

| Sequence | soluble fraction (log2) |
| --- | --- |
| HMAEQEELDAIRPDLDGQEIMDILGIKPGREVGAARNFLLELRLDEGPLGYDEAVSRLLTWWAERT | -1.2 |
| HMRDYDFGNLLYKLRIESGYTQKDIADMLGVTDKAVSKWENGIAKPTTNNIKLLSTIYNVSVEELLNG | -0.754 |
| HMTIRPEDVELVPAEDGYMQGDVVSNIFKGVHYELEVKANGYDWMVHTTKYVEVGSHVGIKVIPFNIQV | 0.22 |
| HMTIPRLPFAFAKRFGIVLDNRPSGFVAAHKEGLLPHVLLEVQRFLGDAYTLEVVSDDDFERILGQVYQT | -2.03 |
| HMSQLVTGVLRNLNDISEKIAAGKAVPEMLGRLENMQQMIANLKGNEGLIKSISILTRSAQDALR | -0.0398 |
| HMSTSFQVQVSVLDLRIRKEPTVKGQEVGKISKGIHTITETRSADGYTWGKLESGQGWIALEFTTKLD | 0.0132 |
| HMQNWFADPKFEMFEDYGDAQSFYDTETKNIYVVMAEYGQKGSNTIQEITPDSEEYIPNYEKYKEYMENK | -1.42 |
| HMNVSDIENKLNEMLSPLEKKVMVLYLEGKSYVEIGELLGRHTKSVDNALQRVKRKLEIYLKNRK | 0.295 |
| HMNSNQESFENWLSANSWYNKDRAMRVFADSLGQELRNSGVSFEKALTQISAEVRKEFSHKFQ | -0.213 |
| HMNSTVKVPNVVGMSVPQAKALLEQNHLLVQGIREVSTDKAPAGIVINQLPYSDAEVKEERHIYLTVSKGK | 0.0926 |
| HMGNGDTNERIATLMQILAKQESIINQYGLENPVVSPQMYVRTLKKVVELSGFKDASSYFADIPDGWKA | 0.0699 |
| HMIEGSSDWKPNMILDDGGDLTKIIHEEYQDLLDDIRGLSEETTTGVLRLYEMEKENSLAVPAINVND | -0.578 |
| HMTDNSTTTIRNLKIEWLLEEIRNAVRTGVSVDAAVERISNNPFVKPPEDLLNEARIIFLQNAGQI | -0.848 |
| HMSDYYEVLGVTRQADAEEIKRAYRRKARQLHPDVAGPGHEEEFKEVTVAYEVLSDPEKRQAYDLGGQDAL | 0.0614 |
| HMANTLDPMDLKQIISLHLDGFSNRKIGATLGISRNTVNTYMRLFSVSDYALKELLTLDNATLDKLFPS | -0.603 |
| HMEYDYKVIDFFKDYYSYLNYQEIEPNILDKQLTTLTEEESAKIAGIMKLDYEDFTRGIEIVTGS | -1.41 |
| HMGKEIEAPDFKNMTLKEAKIAAKEYKIRIKKGDEVVSEEVEKGRIVSQDPDAGTTIKTGSTVTVNISKGL | 0.0135 |
| HMKESFAQLFSLLTPTEQKVAALISQGFSNKDIAAKMFISLSTVKTHTNHIFAKMGVANRNALVAKVNN | -0.0677 |
| HMVWPETEAIVTEDFIGKKRSEVQQEGVIFEFFGEGDMVIDQLPRGGVTLNESGRVWIYLGEDTF | -1.4 |
| HMEGPALKVWKARYLRAAILEQLLSDRWDDRGGQPIRVVVNEPTNSLLIRIPRHLWPEAEKLLQELDQR | -0.312 |
| HMLELTVSDKMARLMAWRNRRRVNLSDQELHRIAAAPKQSPESILKMLPGFLQDSVPEIWAELTGGRP | -0.0678 |
| HMQLDLNENEKIIFEILQNNKTMQLSNLKTQTELSNKGWDKAIKSLTKQGLAKVSKIDNELIVEFL | -0.723 |
| HMISRKIKELRLSHDLTQKDLADYLNLTPKMVSFYELGQRVPPSDIILKLAEKFHVSTDYLLGNEDRP | -0.126 |
| HMGMNKEHFIIELKIYLKALNPKDQAIILAKYKALFDARVAEGETEEQVAKSLGKPRVIAEEILKEQGIE | ≥ 0.43 |
| HMDVDKQLDQLLAAMIPDKSLRQTIKTKAFNELVDNELADKDISSWTKQTMDVFMTRAEDMFGAM | -1.43 |

| Sequence | soluble fraction (log2) |
| --- | --- |
| HMGRLEVDLVVPYDKYEAMNVIRAEGRILKEDHQGDGAHLKIQINETALWKLKRMLGEGYGQ | -0.255 |
| HMEELIIQEELANKRLDIAISLLFPELTRAHAQKLIKEGSVLVDGKPRKASYPLTAGKRLSVTLPEPE | -0.0497 |
| HMIKRNPLDEIEGVGPGRKKALLHAFGSAKGVSRASVVDLVKVEGVSQALAERIHDFFHPATR | 0.198 |
| HMRSIVETLTDRELEIFQLIGNGFSTGEIARRLNLSPHTIETHRKNIKDKLGLSSGSELNKQAIQWVLSS | -1.15 |
| HMAPTGTDRQTPHTRDELYLVLSGTGTFVNGDARHPFGPGDALFVPAGAEHRFEDFSDDFRTWVVFYGAEG | -0.734 |
| HMRGLLSQREHDVLDLVARGFSYGEIARLRSISVSTVQTHIKNLYRKLAVSSRTEAVYEAKQMGI | -0.755 |
| HMPTAGYMTVTPDRVKEGQQFLATLRPPYVLKADGLAAGKGVLILPELEEAQRELEEMLGGFLGELSVNR | -0.303 |
| HMFYWTDLIGLDVINTADERLGKVVGLIETGANAVLRVMGDDQVERLLPFGSAVVLTVEKEAGQIRVEW | -2.05 |
| HMDGFAEFWSAYPKKVGKGAAEASWRKHRPPLQTVLDAVKRQAESDQWRKDGGQFIPNPATWLNQKRWEDD | -0.101 |
| HMVMRHTVEHDAELLAVLRLMYPASSSTKLRKMLTQGRVLVNDDVVHRAKHGVASGDTVDVIVRQRAE | 0.0827 |
| HMGQPGNWTSYVFKNSDTEPAKPTSSGPIPSGWNDAPTGVGIWWMSKATIDASTGKAGSWSTPIRVTGED | 0.0155 |
| HMFASSADGVEGLKTNPIFASTKEKSDAGKLLYTRYLAIGIFRMLELAKATDPKALEALVEAGG | 0.147 |
| HMKVEIVRVVKDIHIGDEITKDMVRTVEVGGYNLPDGVVKDTATVIGRFASADMVPGDYIISSKIADAP | 0.0866 |
| HMSLTEDELFHALTIYANREGINIGATELKYLLTHYARNLGKLIELINQVSQAATMQKKPITIPLIKHS | -0.251 |
| HMKRNTKAEVLEILLNSGETPVSGERLAENLGISRNAVWKAVTALKEDGYNISAKRNSGYILNKS | 0.376 |
| HMGMVKLNEEYLEKVKKHRKELHITQLQISKKLGWSLSRYQRFESGFYKEIEDDAPKKIKEEFGIDYSLL | -0.231 |
| HMGIVAPGTLKHLHAVGNSYYPDWETKRHELVTAVTKGRTSSSKELYEAEANRLITRIEELLMTAAQSV | -0.548 |
| HMGVKTDKYYYQMATETRVNKHYGLSNQYIATLISEYPRSPLIPNASILSKKNNADLALIDQSINQR | 0.155 |
| HMAMTRTEYLNQLKHYLKRLPHTDYEEAMDYFKEYFEEAGPENEAQVIQDLGNPKEAAYEILSQLL | -0.615 |
| HMLEIRGFTVLLSDRGIVGIIEEIIQNPGQDLLRILSPEKREILVPLHSDLITGINKKKKTITMNLPDGL | -0.775 |
| HMAADLIGLEARVTLPLTEDQRGFIETSVRGSLVRRAALSASGRLDRGQRVVILRSEGTTLIVDAL | -0.372 |
| HMITLYIHNLEEVGKRLDHYLVSNLDDHSRSQIQSWIRSGSILVNDRSVKTGYSLELNDQILINPPK | -0.15 |
| HMLTIQNYFNQVKNIDWEQVPAALSKGHQLVEGASQNNWSAYHSNANIQRVVEAYFQKLNDYLEKN | -0.168 |
| HMNDIVKIYTTHRIINIEGLAKNEPIMLYTINGTLIDKSVSSNGSAQLHVKGIGVYLVKWANNIVKVIVPN | 0.199 |
| HMVDITPDLIRTLLERFGEYGVTKEHIEARIQRHIESILPAQVVQLRKTYNSLKDGMSQPSDWFDI | -1.43 |
